Patent EP4442322A1

Molecular target: ASGPR of the murine amino acid sequence (murine)
Assay: cell-based or functional assay

Chain of ASGPR of the murine amino acid sequence (murine) (P34927 whole entry, chain 1 of 2): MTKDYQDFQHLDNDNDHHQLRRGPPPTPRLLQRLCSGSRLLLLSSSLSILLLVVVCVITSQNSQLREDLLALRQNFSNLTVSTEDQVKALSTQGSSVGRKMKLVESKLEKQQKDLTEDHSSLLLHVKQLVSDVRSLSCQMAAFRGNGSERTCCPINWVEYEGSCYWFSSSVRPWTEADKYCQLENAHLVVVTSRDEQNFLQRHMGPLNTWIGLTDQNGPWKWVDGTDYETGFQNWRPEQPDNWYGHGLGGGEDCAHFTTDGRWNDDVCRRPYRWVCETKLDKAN
Chain of ASGPR of the murine amino acid sequence (murine) (P24721 whole entry, chain 2 of 2, further chain): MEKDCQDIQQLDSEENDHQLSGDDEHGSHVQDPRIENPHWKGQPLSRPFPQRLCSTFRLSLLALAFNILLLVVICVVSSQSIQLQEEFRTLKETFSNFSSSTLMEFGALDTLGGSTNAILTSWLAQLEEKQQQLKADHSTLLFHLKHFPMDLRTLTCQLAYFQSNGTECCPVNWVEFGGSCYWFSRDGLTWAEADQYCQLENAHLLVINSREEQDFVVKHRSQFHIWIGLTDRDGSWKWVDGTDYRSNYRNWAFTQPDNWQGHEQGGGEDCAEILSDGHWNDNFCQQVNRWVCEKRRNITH

B1: CAR having the scFv of SEQ ID NO: 24 (C11), murine Ig-construct (mIg) (protein)
chain: QIQLVQSGGGLVQPGGSLRLSCAGSGYTFSDHYMDWVRQAPGKGLEWVGRIRYKANSYSTEYAASVKGRFTISRDDSRNSLFLQMNSLKTEDTAVYYCARIRDRYYFDYWGQGALVTVSSGSASAPKLEEGEFSEARVQSVLTQPPSVSGAPGQRVTISCTGSSSNVGAGYDVHWYQQLPGAAPKLLIYGNSNRPSGVPDRFSGSKSGTSASLAISGLQSEDEADYYCAAWDDSLNGVVFGGGTKLTVLGQPKAAPSVTLFPPSSAAAGSEQKLISEEDLSHHHHHHVPRDGGCKPCICTVPEVSSVFIFPPKPKDVLTITLTPKVTCVVVDISKDDPEVQFSWFVDDVEVHTAQTQPREEQFNSTFRSVSELPIMHQDWLNGKEFKCRVNSAAFPAPIEKTISKTKGRPKAPQVCTIPPPKEQMAKDKVSLTCMITDFFPEDITVEWQWNGQPAENYKNTQPIMDTDGSYFVYSKLNVQKSNWEAGNTFTCSVLHEGLHNHHTEKSLSHSPGVFLACVLGGSFGFLGFLGLCILCCVNSRRNRLLQSDYMNMTPRRPGLTRKPYQPYAPARDFAAYRPLRAKFSRSAETAANLQDPNQLYNELNLGRREEYDVLEKKRARDPEMGGKQQRRRNPQEGVYNALQKDKMAEAYSEIGTKGERRRGKGHDGLYQGLSTATKDTYDALHMQTLAPR
  activated cells (GFP), Q2 (Fig. 6E): 3.41%
  activated cells (GFP), Q2 and Q3 in total (Fig. 6E): 13.3%
  activated cells (GFP), Q3 (Fig. 6E): 9.86%

B2: CAR having the scFv of SEQ ID NO: 24 (C11), murine CD8 construct (mCD8) (protein)
chain: QIQLVQSGGGLVQPGGSLRLSCAGSGYTFSDHYMDWVRQAPGKGLEWVGRIRYKANSYSTEYAASVKGRFTISRDDSRNSLFLQMNSLKTEDTAVYYCARIRDRYYFDYWGQGALVTVSSGSASAPKLEEGEFSEARVQSVLTQPPSVSGAPGQRVTISCTGSSSNVGAGYDVHWYQQLPGAAPKLLIYGNSNRPSGVPDRFSGSKSGTSASLAISGLQSEDEADYYCAAWDDSLNGVVFGGGTKLTVLGQPKAAPSVTLFPPSSAAAGSEQKLISEEDLSHHHHHHSSVVPVLQKVNSTTTKPVLRTPSPVHPTGTSQPQRPEDCRPRGSVKGTGLDFACDIYIWAPLAGICVALLLSLIITLICYHRWTNSRRNRLLQSDYMNMTPRRPGLTRKPYQPYAPARDFAAYRPRAKFSRSAETAANLQDPNQLYNELNLGRREEYDVLEKKRARDPEMGGKQQRRRNPQEGVYNALQKDKMAEAYSEIGTKGERRRGKGHDGLYQGLSTATKDTYDALHMQTLAPR
  activated cells (GFP), Q2 (Fig. 6F): 4.04%
  activated cells (GFP), Q2 and Q3 in total (Fig. 6F): 9.44%
  activated cells (GFP), Q3 (Fig. 6F): 5.4%

B3: CAR having the scFv of SEQ ID NO: 26 (C3), murine Ig-construct (mIg) (protein)
chain: VHSQVTLKESGGGLVQPGGSLRLSCAASGFTFSSYAMSWVRQAPGKGLEWVSAISGSGGSTYYADSVKGRFTISRDNSKNTLYLQMNSLRAEDTAVYYCAKDLKQWLEDYWGQGTLVTVSSGSASAPKLEEGEFSEARVDVVMTQSPSTLSASVGDRVTITCRASQSIGPWLAWYQQKPGEAPKLLLYKASILEGGVPSRFSGRGSGTEFTLTISSLQPDDFATYYCQQYNTFGPTFGQGTKLEIKRTVAAPSVFDPVPRDGGCKPCICTVPRDGGCKPCICTVPEVSSVFIFPPKPKDVLTITLTPKVTCVVVDISKDDPEVQFSWFVDDVEVHTAQTQPREEQFNSTFRSVSELPIMHQDWLNGKEFKCRVNSAAFPAPIEKTISKTKGRPKAPQVCTIPPPKEQMAKDKVSLTCMITDFFPEDITVEWQWNGQPAENYKNTQPIMDTDGSYFVYSKLNVQKSNWEAGNTFTCSVLHEGLHNHHTEKSLSHSPGVFLACVLGGSFGFLGFLGLCILCCVNSRRNRLLQSDYMNMTPRRPGLTRKPYQPYAPARDFAAYRPLRAKFSRSAETAANLQDPNQLYNELNLGRREEYDVLEKKRARDPEMGGKQQRRRNPQEGVYNALQKDKMAEAYSEIGTKGERRRGKGHDGLYQGLSTATKDTYDALHMQTLAPR
  activated cells (GFP), Q2 (Fig. 9E): 3.7%
  activated cells (GFP), Q2 and Q3 in total (Fig. 9E): 6.06%
  activated cells (GFP), Q3 (Fig. 9E): 2.36%
